Measured values reported in US20190330346A1 (REMD BIOTHERAPEUTICS, published 2019).

Tests used:
human PD-1 [1] = molecular target: T1, human PD-1 (human, UniProt Q15116 25-167); assay: SPR, multiple-cycle, crude Fab from E. coli; antigen form not stated
T1 construct: The immunogen was PD1/Fc (Leu25-Gln167 fused to human IgG1 Pro100-Lys330); also called huPD-1; hPD-1
Text: (§1) A homology model of mouse anti-PD1 Fv was built wherein putative back mutation sites (i.e., buried residues of the frameworks that are different in the mouse and human acceptor sequences) were identified. There were a total of 14 putative back mutation sites. A variant humanized Fab comprising all 14 of the putative back mutation sites of PD1-grafted Ab mutated back to their mouse counterparts (hereinafter identified as “PD1-BM Ab”) comprising the heavy chain variable region sequence set forth in SEQ ID NO: 38 and the light chain variable region sequence set forth in SEQ ID NO: 39, was synthesized. In addition, 14 variants of PD1-BM Ab (hereinafter identified as Fabs 1-14), each having at least one of the putative 14 back mutation sites in PD1-BM Ab mutated back to the human counterpart, were synthesized. These constructs were used to transform E. coli TG1 strain. Single colonies were pick for each individual construct and grown in E. coli medium. Crude chimeric and humanized Fabs were collected and subjected to multiple-cycle affinity estimation by Surface Plasmon Resonance (SPR).

human PD-1 [2] = molecular target: T1, human PD-1; assay: SPR, multiple-cycle, crude Fab from E. coli; antigen form not stated; footnote: *out of the detection limit
Text: as §1

human PD-1 [3] = molecular target: T1, human PD-1; assay: SPR, multiple-cycle, crude Fab from E. coli
Text: as §1

[4] = molecular target: T2, His-tagged human PD-1 protein (human, UniProt Q15116 25-170, limits assumed); assay: SPR (Biacore T200); antibody captured by anti-human Fc gamma, His-tagged human PD-1 as analyte
T2 construct: SPR analyte; also called his-tagged antigen PD-1; not shown: His tag
Method: Using the HCVR sequence and LCVR sequence of mAb PD1#3, a murine-human chimeric Fab (hereinafter “chimeric IgG”) was prepared which comprised the heavy chain sequence set forth in SEQ ID NO: 32 and the light chain sequence set forth in SEQ ID NO: 34. The heavy chain and light chain of the chimeric IgG are encoded by the nucleic acids set forth in SEQ ID NOs: 33 and 35, respectively. Nucleic acids encded by SEQ ID NO: 33 and SEQ ID NO: 35 which include a leader sequence were amplified and inserted into pTT5 to make an expression plasmid of the full-length IgG. The heavy chain and light chain expression plasmids were used to co-transfect 100 mL HEK293-6E cells. The recombinant IgG secreted into to media was purified using protein A affinity. The purified IgG migrated as ˜170 kDa band in SDS-PAGE under non-reducing conditions, ˜55 kDa and ˜30 kDA bands under reducing condition. The purity of the chimeric IgG is >90%, and the yield form the 100 mL culture was 0.46 mg. The binding affinity between the chimeric IgG and PD1/Fc fusion protein was determined using a Surface Plasmon Resonance (SPR) biosensor, Biacore T200 (GE Healthcare). PD1#3 was immobilized on the sensor chip pre-coated with anti-human Fc gamma. His-tagged human PD-1 protein was used as analyte.

[5] = molecular target: T2, His-tagged human PD-1 protein; assay: SPR (Biacore T200); IgG captured by anti-human Fc gamma, His-tagged human PD-1 as analyte, 1:1 model
Method: The binding affinity of the purified IgGs to human PD-1 protein were determined using a Surface Plasmon Resonance (SPR) biosensor, Biacore T200 (GE Healthcare). Antibodies were captured on the sensor chip pre-coated with anti-human Fc gamma. His-tagged human PD-1 protein was used as analyte. The data of dissociation (kd) and association (kₐ) rate constants were obtained using Biacore T200 evaluation software. The equilibrium dissociation constants (KD) were calculated from the ratio of kd over kₐ. Binding data for each antibody was processed and fitted to 1:1 interaction model using Biacore T200 evaluation software. All experimental data could be well fitted to the model.

T1 sequence (Q15116 25-167 limits assumed): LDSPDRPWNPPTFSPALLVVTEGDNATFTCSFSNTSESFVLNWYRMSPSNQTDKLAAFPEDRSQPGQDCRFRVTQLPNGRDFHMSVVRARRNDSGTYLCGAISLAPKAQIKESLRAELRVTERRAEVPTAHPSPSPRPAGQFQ
T2 sequence (Q15116 25-170 limits assumed): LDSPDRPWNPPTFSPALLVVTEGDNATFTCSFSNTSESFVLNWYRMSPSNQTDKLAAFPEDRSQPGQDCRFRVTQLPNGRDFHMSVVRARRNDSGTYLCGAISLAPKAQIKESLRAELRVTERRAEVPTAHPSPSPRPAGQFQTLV

B1: Fab 2 (Fab, V domains shown)
VH: EVQLVESGGGLVQPGGSLRLSCAASGFVFSRYDMAWVRQTPGKGLEWVSFISGGGSNTYYPDTVKGRFTISRDNSKNTLYLQMNSLRAEDTAVYYCISPYYYAMEYWGQGTTVTVSS
VL: DIQMTQSPSSISTSVGDRVTITCKASQDVDTAVAWYQQKPGKSPKLLIHWASTRHTGVPSRFSGSGSGTDFTLTLSSVQPEDLADYFCQQYSTFPWTFGGGTKLEIK
notes: Crude Fab from E. coli; also called PD1-BM VH-A49S
In the case of B1, the kon (human PD-1 [1]) is reported as 320000 M⁻¹ s⁻¹, the Kd (human PD-1 [2]) is reported as ≤ 0.025 nM and the koff (human PD-1 [2]) is reported as < 8.1e-06 s⁻¹.

B2: Fab 4 (Fab, V domains shown)
VH: EVQLVESGGGLVQPGGSLRLSCAASGFVFSRYDMAWVRQTPGKGLEWVAFISGGGSNTYYPDTVKGRFTISRDNSKNTLYLQMNSLRAEDTAVYYCIKPYYYAMEYWGQGTTVTVSS
VL: DIQMTQSPSSISTSVGDRVTITCKASQDVDTAVAWYQQKPGKSPKLLIHWASTRHTGVPSRFSGSGSGTDFTLTLSSVQPEDLADYFCQQYSTFPWTFGGGTKLEIK
notes: Crude Fab from E. coli; also called PD1-BM VH-S98K
B2: no binding (human PD-1 [3]).

B3: chimeric IgG (antibody, V domains shown)
VH: EVQLVESGGDLVKPGGSLKLSCAASGFVFSRYDMAWVRQTPEKRLEWVAFISGGGSNTYYPDTVKGRFTISRDNAKNTLYLQMTSLKSEDTAVYYCISPYYYAMEYWGQGTSVTVSS
VL: DIVMTQSHKFISTSVGDRVSITCKASQDVDTAVAWYQQKPGQSPKLLIHWASTRHTGVPDRFTGGGSGTDFTLTLSNVQSEDLADYFCQQYSTFPWTFGGGTRLEIKR
notes: Full-length IgG from HEK293-6E cells; also called murine-human chimeric antibody derived from PD1#3
B3 was tested, and the Kd [4] was 0.48 nM, the Kd [5] was 0.487 nM and the koff [5] was 0.000129 s⁻¹. It also gave a kon [5] of 265000 M⁻¹ s⁻¹.
